Measurements published in publication PMC7470959, “Structures of mammalian GLD-2 proteins reveal molecular basis of their functional diversity in mRNA and microRNA processing”.

How the values were obtained:
Conditions in all cases: protein: recombinant; tags: N-terminal His6 removed by PreScission protease; label: 5' biotin; single strand
rnGLD-2 NTase region WT = biological target: T1, rnGLD-2 NTase region WT (Rattus norvegicus, UniProt Q5U315 131-484); experiment: EMSA; 4 uM protein, 50 nM RNA; described as weak interaction; no Mg2+ listed in binding buffer; EMSA: 20 mM Tris-HCl pH 8.0, 100 mM NaCl, 37 C 20 min; 4 uM protein, 50 nM 5' biotinylated RNA; 6% native gel, TAE pH 7.2, 4 C
T1 sequence: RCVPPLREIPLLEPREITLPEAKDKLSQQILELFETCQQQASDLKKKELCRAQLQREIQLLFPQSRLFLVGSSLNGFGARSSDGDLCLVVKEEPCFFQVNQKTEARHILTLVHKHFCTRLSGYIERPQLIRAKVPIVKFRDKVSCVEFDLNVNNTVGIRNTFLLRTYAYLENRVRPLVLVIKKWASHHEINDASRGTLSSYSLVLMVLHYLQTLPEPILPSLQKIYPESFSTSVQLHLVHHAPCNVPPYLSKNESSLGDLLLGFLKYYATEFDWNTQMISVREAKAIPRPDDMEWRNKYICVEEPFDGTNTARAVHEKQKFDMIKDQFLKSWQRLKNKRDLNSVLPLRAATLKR

rnGLD-2 R236A = biological target: T2, rnGLD-2 R236A (Rattus norvegicus, UniProt Q5U315 131-484, R236A); experiment: EMSA; 4 uM protein, 50 nM RNA; efficient/tight binding stated; EMSA: 20 mM Tris-HCl pH 8.0, 100 mM NaCl, 37 C 20 min; 4 uM protein, 50 nM 5' biotinylated RNA; 6% native gel, TAE pH 7.2, 4 C
T2 sequence: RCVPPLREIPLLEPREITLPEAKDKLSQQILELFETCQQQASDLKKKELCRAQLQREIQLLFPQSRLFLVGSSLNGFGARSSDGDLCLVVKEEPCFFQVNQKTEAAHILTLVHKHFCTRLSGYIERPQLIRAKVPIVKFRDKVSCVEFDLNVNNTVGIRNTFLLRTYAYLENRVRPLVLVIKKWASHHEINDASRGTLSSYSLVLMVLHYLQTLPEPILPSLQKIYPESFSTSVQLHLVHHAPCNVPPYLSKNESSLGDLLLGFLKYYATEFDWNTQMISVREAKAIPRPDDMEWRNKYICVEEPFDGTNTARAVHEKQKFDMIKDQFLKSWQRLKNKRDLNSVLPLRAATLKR

rnGLD-2 R443A = biological target: T3, rnGLD-2 R443A (Rattus norvegicus, UniProt Q5U315 131-484, R443A); experiment: EMSA; 4 uM protein, 50 nM RNA; EMSA: 20 mM Tris-HCl pH 8.0, 100 mM NaCl, 37 C 20 min; 4 uM protein, 50 nM 5' biotinylated RNA; 6% native gel, TAE pH 7.2, 4 C
T3 sequence: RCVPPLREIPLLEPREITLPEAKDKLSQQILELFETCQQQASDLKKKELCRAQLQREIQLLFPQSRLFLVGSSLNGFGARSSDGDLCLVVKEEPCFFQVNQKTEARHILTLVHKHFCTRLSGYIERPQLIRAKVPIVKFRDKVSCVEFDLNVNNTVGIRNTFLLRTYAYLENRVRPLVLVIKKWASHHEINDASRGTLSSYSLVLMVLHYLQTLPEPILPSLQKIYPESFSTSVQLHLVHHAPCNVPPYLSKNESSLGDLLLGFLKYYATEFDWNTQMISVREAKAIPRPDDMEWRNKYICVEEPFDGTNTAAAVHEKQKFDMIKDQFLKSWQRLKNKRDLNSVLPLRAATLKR

rnGLD-2 R325A = biological target: T4, rnGLD-2 R325A (Rattus norvegicus, UniProt Q5U315 131-484, R325A); experiment: as above
T4 sequence: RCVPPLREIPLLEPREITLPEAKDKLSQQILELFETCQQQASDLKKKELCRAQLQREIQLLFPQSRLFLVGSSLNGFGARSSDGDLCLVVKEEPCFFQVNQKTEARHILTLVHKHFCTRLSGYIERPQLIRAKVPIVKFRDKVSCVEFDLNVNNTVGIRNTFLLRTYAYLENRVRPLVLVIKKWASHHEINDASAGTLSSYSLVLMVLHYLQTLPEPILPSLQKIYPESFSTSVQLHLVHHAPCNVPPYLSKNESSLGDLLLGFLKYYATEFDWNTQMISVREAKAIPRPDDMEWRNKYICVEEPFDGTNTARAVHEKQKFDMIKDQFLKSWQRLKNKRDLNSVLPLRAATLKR

AAAAAAAAAAAAAAA (ssRNA) [A15]: binds (rnGLD-2 NTase region WT); binds (rnGLD-2 R236A); no binding (rnGLD-2 R443A). AAAAAAAAAAAAAAA (ssRNA) [A15]: no binding (rnGLD-2 R325A).
